Legend:
Assay type in all cases: biochemical
CK2 = target: T1, CK2 (Homo sapiens, UniProt P68400); assay: Millipore radiometric kinase activity assay, CK2 (h)
T1 construct: purchased Millipore (assay service)
Description: (§1) A commercial radiometric assay service (Millipore, Billerica, Mass.) was used to test the specificity and potency of peptides containing a coupled transduction domain and therapeutic domain, hereinafter “complete peptides”). In these assays, if the kinase is not inhibited by an inhibitor peptide, a positively charged substrate is phosphorylated with a radiolabeled phosphate group from an ATP.
(§2) In a final reaction volume of 25 μL, CK2 (h) (5-10 mU) is incubated with 20 mM HEPES pH 7.6, 0.15 M NaCl, 0.1 mM EDTA, 5 mM DTT, 0.1% Triton X-100, 165 μM […] [SEQ ID NO: 55], 10 mM MgAcetate and [γ-^33P-ATP] (specific activity approx. 500 cpm/pmol, concentration as required). The reaction is initiated by the addition of the MgATP mix. After incubation for 40 minutes at room temperature, the reaction is stopped by the addition of 5 μL of a 3% phosphoric acid solution. 10 μL of the reaction is then spotted onto a P30 filtermat and washed three times for 5 minutes in 75 mM phosphoric acid and once in methanol prior to drying and scintillation counting.
(§3) IC50 values for inhibitor peptides were determined using Millipore's IC50Profiler Express service. The IC50 value was estimated from a 10-point curve of one-half log dilutions. For peptides tested for specificity, the concentration of the peptides that inhibited approximately 95% of MK2 activity was chosen to profile against a battery of kinases related to MK2, cell viability, or human disease from MilliporeKinaseProfiler service. In both assays, compounds were supplied in dimethylsulfoxide (DMSO). Every kinase activity measurement was conducted in duplicate.
(§4) Therapeutic inhibitor peptides were assayed for activity against human kinases related to MK2, cell viability, or human disease. The assays were performed using concentrations of therapeutic inhibitor peptides that yielded 2% to 8% of normal MK2 activity. Error is reported as the standard deviation between 2 samples, and “c” is rat AMPK whereas all other kinases used are human kinases.

CHK1 = target: T2, CHK1 (Homo sapiens, UniProt O14757); assay: Millipore radiometric kinase activity assay, CHK1 (h)
T2 construct: purchased Millipore (assay service)
T2 sequence (O14757 1-476): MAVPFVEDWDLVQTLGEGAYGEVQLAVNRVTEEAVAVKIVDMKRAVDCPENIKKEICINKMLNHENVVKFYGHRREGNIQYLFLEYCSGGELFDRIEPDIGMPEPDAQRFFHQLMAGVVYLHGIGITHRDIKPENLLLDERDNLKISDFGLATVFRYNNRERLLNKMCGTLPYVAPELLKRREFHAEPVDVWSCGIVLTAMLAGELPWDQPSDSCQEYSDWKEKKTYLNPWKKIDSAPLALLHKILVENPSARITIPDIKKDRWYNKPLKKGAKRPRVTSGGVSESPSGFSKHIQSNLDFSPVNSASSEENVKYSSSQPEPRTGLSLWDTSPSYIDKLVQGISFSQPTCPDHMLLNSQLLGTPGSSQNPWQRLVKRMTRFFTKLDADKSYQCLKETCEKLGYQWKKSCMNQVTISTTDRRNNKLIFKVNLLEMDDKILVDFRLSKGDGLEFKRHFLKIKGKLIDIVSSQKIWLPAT
Description: as §1
as §2, with “CHK1” for “CK2”, “8” for “20”, “MOPS” for “HEPES”, “7.0, 0.2” for “7.6, 0.15 M NaCl, 0.1”, “200” for “5 mM DTT, 0.1% Triton X-100, 165”, “53],” for “55],”
as §3, §4

Flt3 = target: T3, Flt3 (Homo sapiens, UniProt P36888); assay: Millipore radiometric kinase activity assay, Flt3 (h)
T3 construct: purchased Millipore (assay service)
T3 sequence (P36888 27-993): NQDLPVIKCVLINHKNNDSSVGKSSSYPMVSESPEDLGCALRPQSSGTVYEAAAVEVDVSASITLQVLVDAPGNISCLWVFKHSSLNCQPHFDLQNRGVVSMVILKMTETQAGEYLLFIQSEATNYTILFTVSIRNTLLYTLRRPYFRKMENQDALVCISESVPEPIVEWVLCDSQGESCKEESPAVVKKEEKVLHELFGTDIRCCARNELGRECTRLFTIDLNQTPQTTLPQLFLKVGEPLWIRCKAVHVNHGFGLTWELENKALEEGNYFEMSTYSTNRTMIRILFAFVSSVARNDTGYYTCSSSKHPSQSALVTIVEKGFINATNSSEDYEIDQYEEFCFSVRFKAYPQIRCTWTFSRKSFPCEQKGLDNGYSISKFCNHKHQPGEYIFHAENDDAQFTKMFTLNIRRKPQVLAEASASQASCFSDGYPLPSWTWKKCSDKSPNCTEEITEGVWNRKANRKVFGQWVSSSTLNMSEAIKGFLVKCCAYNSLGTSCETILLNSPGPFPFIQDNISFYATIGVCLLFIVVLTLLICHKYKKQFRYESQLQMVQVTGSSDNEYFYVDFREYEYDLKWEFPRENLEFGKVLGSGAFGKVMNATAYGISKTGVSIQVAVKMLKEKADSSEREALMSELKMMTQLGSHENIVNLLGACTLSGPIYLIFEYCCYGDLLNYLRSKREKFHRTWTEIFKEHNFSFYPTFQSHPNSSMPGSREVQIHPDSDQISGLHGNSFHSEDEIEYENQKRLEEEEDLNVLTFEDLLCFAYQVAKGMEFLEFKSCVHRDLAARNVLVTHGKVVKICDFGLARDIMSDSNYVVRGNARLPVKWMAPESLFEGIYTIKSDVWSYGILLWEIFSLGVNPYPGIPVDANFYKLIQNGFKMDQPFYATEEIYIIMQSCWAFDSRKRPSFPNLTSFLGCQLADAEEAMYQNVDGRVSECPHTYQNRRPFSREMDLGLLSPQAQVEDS
Description: as §1
as §2, with “Flt3” for “CK2”, “8” for “20”, “MOPS” for “HEPES”, “7.0, 0.2” for “7.6, 0.15 M NaCl, 0.1”, “50” for “5 mM DTT, 0.1% Triton X-100, 165”, “48],” for “55],”
as §3, §4

T1 sequence (P68400 whole entry): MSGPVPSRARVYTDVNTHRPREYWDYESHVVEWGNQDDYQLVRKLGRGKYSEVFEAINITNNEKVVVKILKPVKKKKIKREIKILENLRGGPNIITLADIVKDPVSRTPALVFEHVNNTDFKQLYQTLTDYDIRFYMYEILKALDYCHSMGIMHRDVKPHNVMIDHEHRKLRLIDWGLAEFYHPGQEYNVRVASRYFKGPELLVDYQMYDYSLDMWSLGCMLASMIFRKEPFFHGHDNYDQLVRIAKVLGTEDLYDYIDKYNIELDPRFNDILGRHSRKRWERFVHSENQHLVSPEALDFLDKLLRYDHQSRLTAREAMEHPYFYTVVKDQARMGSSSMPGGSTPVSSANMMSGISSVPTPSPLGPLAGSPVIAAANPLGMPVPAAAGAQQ
T1 sequence (P67870 whole entry partner): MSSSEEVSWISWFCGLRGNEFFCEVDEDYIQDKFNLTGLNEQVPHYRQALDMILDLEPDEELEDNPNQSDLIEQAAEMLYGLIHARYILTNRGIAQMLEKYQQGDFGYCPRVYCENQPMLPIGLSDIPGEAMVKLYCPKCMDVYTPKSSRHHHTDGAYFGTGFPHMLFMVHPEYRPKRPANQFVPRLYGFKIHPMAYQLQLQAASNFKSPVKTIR

For KAFAKLAARLYRKALARQLGVAA, the “CK2 Kinase Activity (%) (+SD %)” value (CK2; peptide 100 μM) was 79 (12) %, the “CHK1 Kinase Activity (%) (+SD %)” value (CHK1; peptide 100 μM) was 68 (0) % and the “Flt3 Kinase Activity (%) (+SD %)” value (Flt3; peptide 100 μM) was 20 (3) %.

WLRRIKAWLRRIKALNRQLGVAA was tested, and the “CK2 Kinase Activity (%) (+SD %)” value (CK2; peptide 30 μM) was 114 (4) %, the “CK2 Kinase Activity (%) (+SD %)” value (CK2; peptide 100 μM) was 80 (14) % and the “CHK1 Kinase Activity (%) (+SD %)” value (CHK1; peptide 30 μM) was 31 (5) %. For the same sequence, the “CHK1 Kinase Activity (%) (+SD %)” value (CHK1; peptide 100 μM) was 54 (6) %, the “Flt3 Kinase Activity (%) (+SD %)” value (Flt3; peptide 30 μM) was 38 (1) % and the “Flt3 Kinase Activity (%) (+SD %)” value (Flt3; peptide 100 μM) was 14 (0) %.

Reference: patent publication US9327008B2, “Cell-permeant peptide-based inhibitor of kinases” (Purdue Research Foundation, priority 2008, dated 2016)
